Assay results as given in paper PMC13233820, “Recruitment of Mre11 to recombination sites during meiosis” (Nature Communications, 2026).

Tests used:
HisSUMO-Mer2 (wild type) = test: Co-expression pull-down assay (NiNTA, anti-MBP immunoblot); assay type: binding, Saccharomyces cerevisiae; settings: co-expressed in E. coli
Procedure: Wild-type and mutant MBP-tagged Mre11-C49 and HisSUMO-tagged Mer2 were co-expressed in 50 mL of E. coli BL21 cultures and purified by affinity chromatography on Ni-NTA resin following a procedure similar to that described above. Briefly, cells were lysed by sonication and centrifuged at maximum speed for 30 mins at 4 °C on a table-top centrifuge. A small fraction of the supernatant was collected as ‘Input’ and the remainder was incubated with 120 µL Ni-NTA resin, pre-equilibrated with wash buffer (25 mM HEPES pH 7.5, 20 mM imidazole, 0.1 mM DTT, 0.1 mM PMSF, 10% glycerol), for 1 hour on a rotating wheel at 4 °C. The resin was washed twice with 2 ml in batch and five times with 2 ml on column before eluting with 250 µL of 500 mM imidazole in wash buffer. Input and elution fractions were separated by SDS-PAGE followed by immunoblotting with primary murine anti-MBP monoclonal antibody at 1:10,000 dilution (E8032S, NEB) and secondary goat anti-mouse IgG-HRP conjugated at 1:10,000 dilution (AP308P, Chemicon).

Mer2 = test: Yeast two-hybrid; assay type: binding, Saccharomyces cerevisiae; settings: SC-Leu-Ura-His + 25 mM 3-AT
Procedure: Bait and prey plasmids were co-transformed into yWL365 using the standard ‘LiAc’-based transformation and plated on SC-Leu-Ura selective media. At least four independent transformants were tested for Mer2-Mre11 interaction by spotting a dilution series on SC-Leu- Ura-His + 25 mM 3-AT (3-amino-1,2,4-triazole) and growing for 4-5 days at 30 °C.

B1: Mre11-LLK: Mre11 (or its C49 fragment) with LLK residues mutated to alanine (protein, UniProt P32829 1-692, looked up, variant L683A L686A K690A)
Double-strand break repair …: MDYPDPDTIRILITTDNHVGYNENDPITGDDSWKTFHEVMMLAKNNNVDMVVQSGDLFHVNKPSKKSLYQVLKTLRLCCMGDKPCELELLSDPSQVFHYDEFTNVNYEDPNFNISIPVFGISGNHDDASGDSLLCPMDILHATGLINHFGKVIESDKIKVVPLLFQKGSTKLALYGLAAVRDERLFRTFKDGGVTFEVPTMREGEWFNLMCVHQNHTGHTNTAFLPEQFLPDFLDMVIWGHEHECIPNLVHNPIKNFDVLQPGSSVATSLCEAEAQPKYVFILDIKYGEAPKMTPIPLETIRTFKMKSISLQDVPHLRPHDKDATSKYLIEQVEEMIRDANEETKQKLADDGEGDMVAELPKPLIRLRVDYSAPSNTQSPIDYQVENPRRFSNRFVGRVANGNNVVQFYKKRSPVTRSKKSGINGTSISDRDVEKLFSESGGELEVQTLVNDLLNKMQLSLLPEVGLNEAVKKFVDKDEKTALKEFISHEISNEVGILSTNEEFLRTDDAEEMKALIKQVKRANSVRPTPPKENDETNFAFNGNGLDSFRSSNREVRTGSPDITQSHVDNESRITHISQAESSKPTSKPKRVRTATKKKIPAFSDSTVISDAENELGDNNDAQDDVDIDENDIIMVSTDEEDASYGLLNGRKTKTKTRPAASTKTASRRGKGRASRTPKTDIAGSALAKARK
**Q.** Which results are given for B1?
**A.** Interaction with Mer2 in pulldown (in words) (HisSUMO-Mer2 (wild type)): strongly decreased the interaction; Yeast two-hybrid interaction with Mer2 (in words) (Mer2): abolished the interaction
